Assay results: patent US20250195556A1, “COMPOSITIONS, KITS, AND METHODS TO INDUCE ACQUIRED CYTORESISTANCE USING STRESS PROTEIN INDUCERS” (FRED HUTCHINSON CANCER RESEARCH CENTER, priority 2014, published 2025)
Where “and” joins values, the source holds several entries; their conditions need not be identical. Identical values can stand only once.

Legend:
[1] = Plasma LDH 4 hr after IV test agents (marker of liver, kidney, lung and heart injury); assay type: in vivo, mice; details: 4 hr IV
[2] = system: HO-1; assay: Renal cortical HO-1 mRNA (RT-PCR) and protein (ELISA) after IV myoglobin, SnPP or both (Example 1); assay type: in vivo, mice
Excerpt: The Glycerol Model of AKI. This is a widely used model of rhabdomyolysis-induced AKI that has been employed worldwide for 50 years. The model was used to test whether prophylactic interventions confer protection against AKI. Basically, the protocol is as follows: Male CD-1 mice (35-45 grams), obtained from Charles River Laboratories, Wilmington, M A were studied. Mice were maintained under standard vivarium conditions and generally housed for 1-3 weeks prior to study. The mice were placed in a cylindrical restraining cage, and then were given a tail vein injection of the test substances (see below) or test substance vehicle. The mice were then returned to their cages. Eighteen hours (hrs) later, the mice were briefly anesthetized by isoflurane inhalation, and given an intramuscular injection of hypertonic (50%) glycerol in a dose of 9 ml/Kg body weight. The dose is divided in two, with half injected into the muscle of each of the hind limbs. The mice were then returned to their cages. Eighteen hrs later, the mice were deeply anesthetized with pentobarbital (50-100 mg/Kg), the abdominal cavity was opened through a midline abdominal incision, a blood sample was obtained from the abdominal vena cava and the kidneys were resected. A kidney cross section was obtained and fixed in formalin for subsequent histologic analysis. The terminal blood samples were analyzed for BUN and creatinine, using commercially available assay kits. The remaining kidney tissue was subjected to cortical dissection, and the cortical tissues were then extracted for protein and RNA. The protein samples were saved for analysis of HO-1 levels, and the RNA samples were subjected to RT-PCR to quantify HO-1 mRNA as well as levels of other stress gene mRNAs (e.g. NGAL, haptoglobin, hemopexin, hepicidin).
Myoglobin+SnPP: To 5 mg of dry myoglobin was added 0.9 ml of PBS+0.1 ml of a stock SnPP solution (50 umole/ml). The resulting final concentrations were 5 mg/ml myoglobin+5 umoles/ml of SnPP. The tail vein was injected with 200 μl of this solution, which equals 1 mg myoglobin+1 umole SnPP. […]
Four hr post myoglobin vs myoglobin+SnPP vs SnPP alone experiments. To confirm that the myoglobin+SnPP has a synergistic effect in inducing HO-1 mRNA and HO-1 protein levels, each of the above combinations have been administered alone via tail vein injection. Four hrs later, the mice were sacrificed as noted above and the kidneys were harvested for assessment of HO-1 mRNA and protein levels. For additional information regarding methods, see Zager et al., Am J Physiol Renal Physiol. 2014 Jul. 30. Pii.

[3] = system: haptoglobin; assay: Haptoglobin protein expression after SQ injection of myoglobin or myoglobin + PEG; assay type: in vivo, mice; details: 4 hour time point after SQ injection; control 9.5
Description: Myoglobin+PEG: To a stock solution of 20 mg/ml Mgb in PBS was added 100 mg/ml of PEG-6000; 250 ul. This was administered as a subcutaneous injection in the dorsal neck (250 ul total injection). For combined Mgb/PEG+SnPP, SnPP was added to the above in a concentration of 3 mg/ml.

[4] = system: HK-2 cells; assay: Myoglobin toxicity in HK-2 cells, MTT assay; assay type: cell-based; details: 10 mg/mL, 18 hr incubation, vs control incubated cells
Description: Example 3. […] HK-2 cells (a proximal tubule cell line derived from normal human kidney) were incubated in keratinocyte serum free medium either under normal (control) conditions or in the presence of 10 mg/mL horse skeletal muscle myoglobin or nitrited myoglobin (produced by equimolar Na nitrite addition to 10 mg/ml myoglobin). After 18 hr incubations, the severity of cell injury (% cell death) was assessed by MTT assay. Myoglobin induced 40% cell death (40% decrease in MTT cell uptake), compared to control incubated cells. Nitrite binding to myoglobin reduced cell death by 75%. Thus, nitrite binding is able to reduce myoglobin's cytotoxic effects.

[5] = system: HO-1; assay: Renal cortical HO-1 mRNA (RT-PCR) and protein (ELISA) after IV myoglobin, SnPP or both (Example 1); assay type: in vivo, mice; details: 1 mg myoglobin, 1 μmole SnPP

B1: Myoglobin: Lyophilized horse skeletal muscle (myoglobin) (Sigma Chemicals) used as the test agent (protein, listed as Homo sapiens)
chain: MGLSDGEWQLVLNVWGKVEADIPGHGQEVLIRLFKGHPETLEKFDKFKHLKSEDEMKASEDLKKHGATVLTALGGILKKKGHHEAEIKPLAQSHATKHKIPVKYLEFISECIIQVLQSKHPGDFGADAQGAMNKALELFRKDMASNYKELGFQG
In the case of B1, the “Plasma LDH, Average” value ([1]; carrier 4.43) is reported as 4.47 Absorbance U LDH/ml, the “Plasma LDH” value ([1]; individual subjects) is reported as 4.54 Absorbance U LDH/ml (2×) and 3.90 Absorbance U LDH/ml and 4.91 Absorbance U LDH/ml and the “HO-1 protein expression (by ELISA), Average” value ([2]; cortex, 4 hr IV, 1 mg myoglobin, 1 μmole SnPP, PBS 13.5, carrier 21.5) is reported as 45.4 ng HO-1/mg protein. The “HO-1 protein expression (by ELISA)” value ([2]; cortex, 4 hr IV, 1 mg myoglobin, 1 μmole SnPP, individual mice) was 40.7 ng HO-1/mg protein and 40.2 ng HO-1/mg protein and 64.7 ng HO-1/mg protein and 36.0 ng HO-1/mg protein, the “HO-1/GAPDH mRNA, Average” value ([2]; kidney, 4 hr post IV injection, control average 1.93) was 3.93 and the “HO-1/GAPDH mRNA” value ([2]; kidney, 4 hr post IV injection, individual mice) was 7.78 and 2.93 and 2.58 and 2.41. For the same molecule, the Haptoglobin protein expression [3] was 32.7 ± 6.3 ng/mg protein, the “Cell death (decrease in MTT cell uptake)” value [4] was 40% and the “HO-1 mRNA induction (HO-1/GAPDH mRNA)” value ([5]; overnight (roughly 18 hrs) post IV, individual subjects) was 0.71 and 0.53 and 0.51. The HO-1 protein induction ([5]; overnight (roughly 18 hrs) post IV, individual subjects, in ng/mg protein) was 50.6 and 34.9 and 24.6, the “HO-1 mRNA induction (HO-1/GAPDH mRNA), Average” value ([5]; overnight post IV, control 0.46) was 0.58 and the “HO-1 protein induction, Average” value ([5]; overnight post IV, control 20.5) was 36.7.
